Measured values published in patent publication US20170065662A1.

Target: recombinant His-p27 (full-length p27Kip1, C-terminal histidine tag) (human) (UniProt P46527)
Assay: phage-ELISA, SH3-displaying phage on recombinant His-p27 (multivalent phage, which would enhance binding)

Sequence of recombinant His-p27 (full-length p27Kip1, C-terminal histidine tag) (human) (P46527 whole entry): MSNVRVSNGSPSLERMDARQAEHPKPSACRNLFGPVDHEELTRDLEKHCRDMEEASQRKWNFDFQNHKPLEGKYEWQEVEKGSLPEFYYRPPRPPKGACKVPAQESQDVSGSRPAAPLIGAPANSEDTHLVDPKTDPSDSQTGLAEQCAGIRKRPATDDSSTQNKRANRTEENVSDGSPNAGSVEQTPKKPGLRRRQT

“SH3 domain of Brk displayed on phage (from UniProt Q13882 12-70)” gave a Kd of 250 nM.
